Test system: Hela cells
Test: Flow cytometry binding to Hela cells
Type: cell-based
Conditions: transfection supernatants, FIG. 6
Method: The binding activity of the antibodies to Hela cells (ATCC@ CCL-2, provided by COBIOER) and to RPTEC/TERT1 cells (ATCC@ CRL-4031, provided by COBIOER) was tested by flow cytometry using the transfection supernatants. Briefly, target cells were digested with 0.02% EDTA-2Na, centrifuged at 1500 rpm for 3 mins, and resuspended with PBS. After counting, the cells were added to a 1.5 ml centrifuge tube with 1×10^6 cells per tube, centrifuged at 1500 rpm for 5 minutes, and the supernatant was discarded. Then all the operations were carried out on an ice bath. 100 μL of transfection supernatant was added to each 1.5 ml centrifuge tube. Blank cells, blank cells plus secondary antibody, medium and HEK293 supernatant were set up as the controls. The reaction was performed on an ice bath for 1 hour. Then the cells were pelleted and washed twice with PBS. The secondary antibody, goat anti-Human IgG (PE, abcam, ab98596), was diluted (1:200) and added using 100 μL per tube. The reaction was performed on an ice bath for 1 hour in the dark. The cells were pelleted again and washed twice with PBS, resuspended in 300 μL PBS, and FL2 fluorescence readings were measured by cytometry. The results were analyzed by FlowJo™10 software.
Anti-FOLR1 antibody binding to Hela and RPTEC/TERT1 cells was tested by FACS. The study was carried out as described above. […]

B1: F40: Anti-FOLR1 antibody clone: "Clone F40 has a different HCDRs and LCDRs, and with different HFR and LFR" (antibody, V domains shown)
VH: EVQLLESGGGVVQPGRSLRLSCAASGFTFSSYAMHWVRQAPGKGLEWVAVISYDGSNKYYADSVKGRFIISRDNSKNTVYLQMNSLRAEDTAVYYCARPTYVFTYTGSSFDYWGQGTQVTVSS
VL: DIQVTQSPSSLSASLGDTVSITCRASRGLTDSVAWYQQKPGQAPKLLIYAASTLQSGVPSRFGGSGSGSYFTLTITSLQPEDVATYYCQNYKSAPWTFGQGTKVEIK
In the case of B1, the Hela cell binding is reported as “weakly positive”.
